Here are results for one substance from US20260199429A1.

Test [1] addresses Sturgeon PYY(1-36) (sturgeon).
In test [2] the target is Sea Lamprey PYY(1-36) (sea lamprey).

A value given as a limit tells only on which side of the number the result lay.

As to purified DPP-4 (enzyme), the DPP-4 half-life with Trout PYY (trout) is > 8 h; in the test with Bowfin PYY (bowfin), > 8 h; in test [1] it was > 8 h; in test [2], > 8 h; in the test with Human PYY(1-36) (human), < 2 h.
